Results taken from US20230406926A1 (Kyowa Kirin, published 2023).
One block for each binder: values may come before it.

What was measured:
[1] = target: cynomolgus monkey CD3 on HSC-F cells (cynomolgus monkey, UniProt Q95LI5 22-198); assay: flow cytometry, hybridoma supernatant on HSC-F cells, Alexa 647 anti-human IgG
Experimental: The screening of anti-CD3 antibody-producing hybridomas was performed by flow cytometry. Cells cultured in a flask for floating cell culture were collected, washed twice with PBS, and then suspended in a staining buffer (PBS containing 0.02% EDTA, 0.05% NaN₃, and 1% BSA), and prepared so that the viable cell count was 2.0 to 5.0×10⁵ cells/50 μL. […] As negative control cells, unstained KHYG-1 cells (JCRB cell bank JCRB156) were used.
These three types of cells were mixed in equal amounts, and the resultant was dispensed into a 96-well plate at 50 μL/well, and incubated on ice for 30 minutes, and then, an equal amount of the undiluted hybridoma supernatant solution was added thereto and mixed therewith, and placed at 4° C. for 30 minutes. […] After performing centrifugation of the cells and washing with a staining buffer twice, the cells were suspended in a staining buffer, and the fluorescent intensity was measured with a flow cytometer CyAn ADP (Beckman Coulter, Inc.).

CD3 on T cells = target: T1, CD3 on T cells (UniProt P07766 23-207, limits assumed); assay: flow cytometry on T cells by the method of Example 3, fluorescently labeled secondary antibody
T1 construct: whole, on cells; also called CD3 on the surface of the membrane
Experimental: Each of the various antibodies was added to T cells at a final concentration of 10 g/mL and allowed to react at 4° C. for 1 hour. After washing, Goat anti-Human IgG F(ab)₂-FITC (Acris Antibodies GmbH) diluted to 30 μg/mL was added thereto and allowed to react at 4° C. for 1 hour.
As a positive control, 30 μg/mL of an anti-CD3 antibody OKT-3 (abcam. plc) was used as the primary antibody, and Goat anti-mouse IgG F(ab)₂-FITC (Dako, Inc.) was used as the secondary antibody. After washing, the MFI of the antibody bound to T cells was measured with a flow cytometer Cytomics FC 500 MPL (Beckman Coulter, Inc.).

HER2 = target: T2, HER2 (human, UniProt P04626 23-1255); assay: flow cytometry competition by the method of Example 3 (SK-BR-3 cells): inhibition of the binding of fluorescently labeled Trastuzumab
T2 construct: whole, on cells; also called HER2 on the surface of the cell membrane
Experimental: Subsequently, binding inhibition analysis by flow cytometry was performed using an HER2-positive human breast cancer cell line SK-BR-3 (ATCC HTB-30).
As a negative control, human serum-derived IgG1/kappa (Millipore, Inc.) at the same concentration was added. After washing, mean fluorescent intensity (MFI) of the binding of SK-BR-3 cells was measured with a flow cytometer Cytomics FC 500 MPL (Beckman Coulter, Inc.).

[2] = target: T3, His-tag-fused human CD3D&E protein (Sino Biological, Inc.) (human, UniProt P07766 23-126; P04234 22-105); assay: SPR (Biacore), His-tagged human CD3D&E captured on anti-tetra His antibody, antibody as analyte, single cycle kinetics
T3 construct: also called soluble CD3; human CD3 protein
T3 sequence (P07766 23-126, chain 1 of 2): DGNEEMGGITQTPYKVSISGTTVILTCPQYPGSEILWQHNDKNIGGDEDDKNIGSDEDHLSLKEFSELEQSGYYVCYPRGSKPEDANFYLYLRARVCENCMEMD
T3 sequence (P04234 22-105, chain 2 of 2): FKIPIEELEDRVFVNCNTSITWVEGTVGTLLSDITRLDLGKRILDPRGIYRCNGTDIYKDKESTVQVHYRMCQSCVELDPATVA
Experimental: The binding affinity of these antibodies for CD3 was measured by Biacore (GE Healthcare). Specifically, an anti-tetra His mouse antibody (QIAGEN NV.) was immobilized on a CM5 sensor chip at approximately 8000 RU using an amine coupling kit (GE Healthcare). As the coupling buffer, 10 mM sodium acetate (pH 4.5) was used. As the ligand, a His-tag-fused human CD3D&E protein (Sino Biological, Inc.) dissolved in HBS-EP(+) buffer at 5 μg/mL was captured at 5 μL/min for 120 seconds.
Subsequently, bispecific antibody solutions obtained by 2-fold serial dilution for 5 times from 10 μg/mL was added as the analyte at a flow rate of 30 μL/min, and binding reaction between each antibody and the analyte was measured for 2 minutes, and a dissociation reaction was measured for 5 minutes. The measurement was performed by single cycle kinetics method. The obtained sensorgram was analyzed using Bia Evaluation Software (GE Healthcare), and the kinetic constant of each antibody was calculated.

T1 sequence (P07766 23-207 limits assumed): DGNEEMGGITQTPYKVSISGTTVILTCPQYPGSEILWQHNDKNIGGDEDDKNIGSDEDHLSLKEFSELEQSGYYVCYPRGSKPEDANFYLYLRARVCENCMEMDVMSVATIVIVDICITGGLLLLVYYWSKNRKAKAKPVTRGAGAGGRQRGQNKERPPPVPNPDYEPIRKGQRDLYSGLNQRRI
Sequence of cynomolgus monkey CD3 on HSC-F cells (Q95LI5 22-198): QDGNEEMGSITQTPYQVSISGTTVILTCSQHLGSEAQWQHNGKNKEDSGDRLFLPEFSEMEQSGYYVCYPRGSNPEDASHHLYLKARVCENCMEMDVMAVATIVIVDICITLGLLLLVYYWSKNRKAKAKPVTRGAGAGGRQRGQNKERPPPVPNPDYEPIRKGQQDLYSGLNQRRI

binding result [1]: binds
B1: anti-CD3 monoclonal antibody KM14 (antibody, V domains shown)
VH: QVQLVESGGGVVQPGRSLRLSCEASGFTFSSHGMHWVRQAPGKGLEWVASIWYDGSKKYYADSVKGRFTISRDNSKNTLDLQMNSLRAEDTAVYYCAKTLYYYGSERAHGLDVWGQGTTVTVSS
VL: AIQLTQSPSSLSASVGDRVTITCRASQGISSALAWYQQKPGKAPNLLIYDASSLESGVPSRFSGSGSGTDFTLTISSLQPEDFATYYCQQFNSYPRTFGQGTKVEIK
notes: also called hybridoma clone KM14

binding result (CD3 on T cells): no binding (tested: 10 nM) | binding result (HER2): no binding
B2: DNP2_IgG1 (DF) (antibody, V domains shown)
VH: QVQLVQSGAEVKKPGASVKVSCKASGYTFTSYGISWVRQAPGQGLEWMGWISAYNGNTNYAQKLQGRVTMTTDTSTSTAYMELRSLRSDDTAVYYCARWDSSSWSFDYWGQGTLVTVSS
VL: DIQMTQSPSSLSASVGDRVTITCRASQGISSWLAWYQQKPEKAPKSLIYAASSLQSGVPSRFSGSGSGTDFTLTISSLQPEDFATYYCQQYNSYPYTFGQGTKLEIKR
notes: also called IgG1-type anti-2,4-dinitrophenyl (DNP) antibody, clone DNP2

More lines, now with the values behind:

B3: 4D5mut_scSP34_IgG1 (DF) (bispecific antibody)
chain 1: EVQLVESGGGLVQPKGSLKLSCAASGFTFNTYAMNWVRQAPGKGLEWVARIRSKYNNYATYYADSVKDRFTISRDDSQSILYLQMNNLKTEDTAMYYCVRHGNFGNSYVSWFAYWGQGTLVTVSSGGGGSGGGGSGGGGSQAVVTQESALTTSPGETVTLTCRSSTGAVTTSNYANWVQEKPDHLFTGLIGGTNKRAPGVPARFSGSLIGDKAALTITGAQTEDEAIYFCALWYSNLWVFGGGTKLTVLGTKYGPPCPPCPAPEFEGGPSVFLFPPKPKDTLMISRTPEVTCVVVDVSQEDPEVQFNWYVDGVEVHNAKTKPREEQFNSTYRVVSVLTVLHQDWLNGKEYKCKVSNKGLPSSIEKTISKAKGQPREPQVCTLPPSQEEMTKNQVSLSCAVKGFYPSDIAVEWESNGQPENNYKTTPPVLDSDGSFFLVSKLTVDKSRWQEGNVFSCSVMHEALHNRFTQKSLSLSLGK
chain 2: not shown
chain 3: not shown
Kd [2]: 12.6 nM

B4: 4D5mut_scSP34(H05′)_IgG1 (DF) (bispecific antibody)
chain 1: EVQLVESGGGLVQPKGSLKLSCAASGFTFNTYAMNWVRQAPGKGLEWVARIRSKYNNYATYYADSVKDRFTISRDDSQSILYLQMNNLKTEDTAMYYCVRHGNFGNSDVSWFAYWGQGTLVTVSSGGGGSGGGGSGGGGSQAVVTQESALTTSPGETVTLTCRSSTGAVTTSNYANWVQEKPDHLFTGLIGGTNKRAPGVPARFSGSLIGDKAALTITGAQTEDEAIYFCALWYENLWVFGGGTKLTVLGTKYGPPCPPCPAPEFEGGPSVFLFPPKPKDTLMISRTPEVTCVVVDVSQEDPEVQFNWYVDGVEVHNAKTKPREEQFNSTYRVVSVLTVLHQDWLNGKEYKCKVSNKGLPSSIEKTISKAKGQPREPQVCTLPPSQEEMTKNQVSLSCAVKGFYPSDIAVEWESNGQPENNYKTTPPVLDSDGSFFLVSKLTVDKSRWQEGNVFSCSVMHEALHNRFTQKSLSLSLGK
chain 2: not shown
chain 3: not shown
Kd [2]: 108 nM
